Measured values as given in patent publication US20250084169A1 (published 2025).
Numbering of substitutions follows the chain as printed. Read-outs that look alike come from different tables or passages of the source.

T1: recombinant human Fc gamma RIIa (CD32a) 131H (human, UniProt P12318 36-218)
T1 sequence (looked up): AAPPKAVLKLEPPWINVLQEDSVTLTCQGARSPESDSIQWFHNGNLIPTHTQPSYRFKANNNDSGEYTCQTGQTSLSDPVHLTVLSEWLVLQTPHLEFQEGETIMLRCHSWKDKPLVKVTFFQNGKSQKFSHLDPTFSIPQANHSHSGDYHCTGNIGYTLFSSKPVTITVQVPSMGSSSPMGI

T2: recombinant human Fc gamma RIIa (CD32a) 131R (human, UniProt P12318 36-218)
T2 sequence (looked up): T1 sequence (looked up) with H132R

T3: recombinant human Fc gamma RIIb/c (CD32b/c) (human, UniProt P31994 46-217)
T3 sequence (looked up): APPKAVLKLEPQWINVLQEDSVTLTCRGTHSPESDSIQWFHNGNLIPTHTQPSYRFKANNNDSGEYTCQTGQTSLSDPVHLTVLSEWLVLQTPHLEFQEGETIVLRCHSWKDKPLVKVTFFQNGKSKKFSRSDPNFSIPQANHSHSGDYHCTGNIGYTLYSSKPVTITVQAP

T4: CD20 Lipoparticles (Homo sapiens (Human), UniProt P11836 1-297)
T4 sequence: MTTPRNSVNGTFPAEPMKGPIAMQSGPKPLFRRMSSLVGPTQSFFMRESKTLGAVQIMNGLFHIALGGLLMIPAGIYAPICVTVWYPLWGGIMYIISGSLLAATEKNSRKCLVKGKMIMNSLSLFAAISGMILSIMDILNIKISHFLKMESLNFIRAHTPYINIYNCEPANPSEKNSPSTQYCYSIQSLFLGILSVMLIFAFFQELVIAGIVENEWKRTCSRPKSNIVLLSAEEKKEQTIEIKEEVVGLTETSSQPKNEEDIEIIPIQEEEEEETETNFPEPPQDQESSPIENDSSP

T5: recombinant human full-length CD20 (human, UniProt P11836 1-297)
T5 sequence (looked up): T4 sequence

T6: recombinant cynomolgus monkey CD20 (cynomolgus monkey, UniProt M4ZHZ6 1-297)
T6 sequence: T4 sequence with S25P, F31L, T51A, A157V, K217R, N226S, I227V, T239V

T7: cynomolgus monkey CD20 on cells (cynomolgus monkey, UniProt M4ZHZ6 1-297)
T7 sequence: T4 sequence with S25P, F31L, T51A, A157V, K217R, N226S, I227V, T239V

T8: recombinant human CD19 (human, UniProt P15391 20-291)
T8 sequence (looked up): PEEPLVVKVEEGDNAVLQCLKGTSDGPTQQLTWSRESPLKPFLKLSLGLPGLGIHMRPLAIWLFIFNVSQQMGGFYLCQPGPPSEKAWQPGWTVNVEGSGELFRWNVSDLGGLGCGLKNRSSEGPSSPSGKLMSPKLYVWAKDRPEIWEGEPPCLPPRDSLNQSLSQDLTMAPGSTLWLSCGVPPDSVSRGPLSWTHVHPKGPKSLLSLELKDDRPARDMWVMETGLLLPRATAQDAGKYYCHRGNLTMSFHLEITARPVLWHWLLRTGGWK

T9: recombinant cynomolgus monkey CD19 (cynomolgus monkey, UniProt A0A2K5W8L9 20-292)
T9 sequence: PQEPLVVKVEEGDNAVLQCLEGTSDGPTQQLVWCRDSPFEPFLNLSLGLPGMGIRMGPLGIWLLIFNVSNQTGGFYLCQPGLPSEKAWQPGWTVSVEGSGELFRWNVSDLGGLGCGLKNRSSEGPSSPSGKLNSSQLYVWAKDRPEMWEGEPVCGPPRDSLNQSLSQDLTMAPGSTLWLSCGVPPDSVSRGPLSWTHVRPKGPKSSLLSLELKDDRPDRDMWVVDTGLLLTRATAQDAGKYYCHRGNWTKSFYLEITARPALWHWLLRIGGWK

T10: human CD19 on cells (human, UniProt P15391 20-556)
T10 sequence (looked up): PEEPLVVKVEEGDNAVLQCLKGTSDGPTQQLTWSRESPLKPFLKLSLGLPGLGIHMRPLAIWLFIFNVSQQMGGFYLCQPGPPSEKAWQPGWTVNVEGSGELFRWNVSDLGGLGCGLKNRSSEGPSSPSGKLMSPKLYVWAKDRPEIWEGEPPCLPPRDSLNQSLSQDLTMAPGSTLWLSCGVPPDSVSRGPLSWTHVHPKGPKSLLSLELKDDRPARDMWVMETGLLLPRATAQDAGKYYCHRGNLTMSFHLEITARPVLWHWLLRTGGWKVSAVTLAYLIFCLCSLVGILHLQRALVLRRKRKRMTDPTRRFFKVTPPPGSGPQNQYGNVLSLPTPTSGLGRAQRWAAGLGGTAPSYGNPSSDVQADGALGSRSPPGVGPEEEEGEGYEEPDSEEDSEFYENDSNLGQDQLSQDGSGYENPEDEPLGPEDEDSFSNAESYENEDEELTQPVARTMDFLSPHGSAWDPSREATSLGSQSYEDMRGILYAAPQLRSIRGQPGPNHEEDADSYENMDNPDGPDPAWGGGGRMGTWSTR

T11: cynomolgus monkey CD19 on cells (cynomolgus monkey, UniProt A0A2K5W8L9 20-557)
T11 sequence: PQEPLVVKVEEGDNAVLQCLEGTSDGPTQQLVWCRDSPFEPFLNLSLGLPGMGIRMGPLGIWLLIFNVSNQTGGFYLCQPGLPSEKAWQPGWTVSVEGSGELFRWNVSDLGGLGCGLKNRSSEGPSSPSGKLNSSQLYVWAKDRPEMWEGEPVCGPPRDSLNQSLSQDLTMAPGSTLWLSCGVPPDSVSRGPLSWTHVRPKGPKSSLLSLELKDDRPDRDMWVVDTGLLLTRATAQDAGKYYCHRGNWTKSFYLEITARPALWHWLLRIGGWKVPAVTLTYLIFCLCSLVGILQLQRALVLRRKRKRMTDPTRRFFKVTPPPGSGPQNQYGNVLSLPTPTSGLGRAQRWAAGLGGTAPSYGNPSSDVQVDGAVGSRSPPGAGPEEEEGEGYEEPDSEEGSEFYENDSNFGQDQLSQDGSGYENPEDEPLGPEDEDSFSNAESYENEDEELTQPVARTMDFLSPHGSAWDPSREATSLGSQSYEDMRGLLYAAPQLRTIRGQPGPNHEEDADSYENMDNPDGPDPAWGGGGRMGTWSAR

B1: Rituximab (antibody)
VH: not shown
VL: QIVLSQSPAILSASPGEKVTMTCRASSSVSYIHWFQQKPGSSPKPWIYATSNLASGVPVRFSGSGSGTSYSLTISRVEAEDAATYYCQQWTSNPPTFGGGTKLEIKRTVAAPSVFIFPPSDEQLKSGTASVVCLLNNFYPREAKVQWKVDNALQSGNSQESVTEQDSKDSTYSLSSTLTLSKADYEKHKVYACEVTHQGLSSPVTKSFNRGEC
B2: Tafasitamab-cxix (research grade biosimilar) (antibody, human IgG1, kappa)
heavy: EVQLVESGGGLVKPGGSLKLSCAASGYTFTSYVMHWVRQAPGKGLEWIGYINPYNDGTKYNEKFQGRVTISSDKSISTAYMELSSLRSEDTAMYYCARGTYYYGTRVFDYWGQGTLVTVSSASTKGPSVFPLAPSSKSTSGGTAALGCLVKDYFPEPVTVSWNSGALTSGVHTFPAVLQSSGLYSLSSVVTVPSSSLGTQTYICNVNHKPSNTKVDKKVEPKSCDKTHTCPPCPAPELLGGPDVFLFPPKPKDTLMISRTPEVTCVVVDVSHEDPEVQFNWYVDGVEVHNAKTKPREEQFNSTFRVVSVLTVVHQDWLNGKEYKCKVSNKALPAPEEKTISKTKGQPREPQVYTLPPSREEMTKNQVSLTCLVKGFYPSDIAVEWESNGQPENNYKTTPPMLDSDGSFFLYSKLTVDKSRWQQGNVFSCSVMHEALHNHYTQKSLSLSPG
light: DIVMTQSPATLSLSPGERATLSCRSSKSLQNVNGNTYLYWFQQKPGQSPQLLIYRMSNLNSGVPDRFSGSGSGTEFTLTISSLEPEDFAVYYCMQHLEYPITFGAGTKLEIKRTVAAPSVFIFPPSDEQLKSGTASVVCLLNNFYPREAKVQWKVDNALQSGNSQESVTEQDSKDSTYSLSSTLTLSKADYEKHKVYACEVTHQGLSSPVTKSFNRGEC

How the values were obtained:
[1] = biological target: T12, recombinant human Fc gamma RIIIa (CD16a) 158V (human, UniProt P08637 17-208)
T12 sequence (P08637 17-208 F176V limits assumed): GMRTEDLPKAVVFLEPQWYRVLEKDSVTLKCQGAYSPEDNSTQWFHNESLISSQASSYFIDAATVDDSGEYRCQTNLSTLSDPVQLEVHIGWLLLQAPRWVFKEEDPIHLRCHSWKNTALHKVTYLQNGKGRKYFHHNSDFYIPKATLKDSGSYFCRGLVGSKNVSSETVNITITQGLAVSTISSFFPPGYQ

[2] = biological target: T13, recombinant human Fc gamma RIIIb (CD16b) (human, UniProt O75015 17-200)
T13 sequence (O75015 17-200 limits assumed): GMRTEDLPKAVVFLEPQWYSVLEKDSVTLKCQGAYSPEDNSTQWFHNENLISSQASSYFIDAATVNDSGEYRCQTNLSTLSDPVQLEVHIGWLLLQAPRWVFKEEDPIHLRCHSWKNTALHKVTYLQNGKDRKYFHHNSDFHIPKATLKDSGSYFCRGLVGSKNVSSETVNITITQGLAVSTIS

[3] = biological target: T1, recombinant human Fc gamma RIIa (CD32a) …
[4] = biological target: T2, recombinant human Fc gamma RIIa (CD32a) …
[5] = biological target: T3, recombinant human Fc gamma RIIb/c …
[6] = biological target: T14, recombinant human Fc gamma RI (CD64) (human, UniProt P12314 16-288)
T14 sequence (P12314 16-288 limits assumed): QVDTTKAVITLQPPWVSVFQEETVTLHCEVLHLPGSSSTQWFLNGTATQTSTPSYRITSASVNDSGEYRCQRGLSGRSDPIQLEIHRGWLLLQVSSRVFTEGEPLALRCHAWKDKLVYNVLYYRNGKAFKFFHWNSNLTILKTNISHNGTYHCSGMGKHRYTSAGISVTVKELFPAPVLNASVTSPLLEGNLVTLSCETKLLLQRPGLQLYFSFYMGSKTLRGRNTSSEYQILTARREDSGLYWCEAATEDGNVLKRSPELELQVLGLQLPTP

CD20 Lipoparticles = biological target: T4, CD20 Lipoparticles
[7] = biological target: T5, recombinant human full-length CD20
[8] = biological target: T15, recombinant human Fc gamma RIIIa (CD16a) 158F (human, UniProt P08637 17-208)
T15 sequence (P08637 17-208 limits assumed): as the sequence (P08637 17-208 F176V limits assumed) above, with V160F counted along it

[9] = biological target: T12, recombinant human Fc gamma RIIIa …; remark: listed apart in the source
[10] = biological target: T13, recombinant human Fc gamma RIIIb (CD16b); remark: listed apart in the source
[11] = biological target: T1, recombinant human Fc gamma RIIa (CD32a) …; remark: listed apart in the source
[12] = biological target: T2, recombinant human Fc gamma RIIa (CD32a) …; remark: listed apart in the source
[13] = biological target: T3, recombinant human Fc gamma RIIb/c …; remark: listed apart in the source
[14] = biological target: T14, recombinant human Fc gamma RI (CD64); remark: listed apart in the source
[15] = biological target: T16, cynomolgus monkey Fc gamma receptor CD16 (cynomolgus monkey, UniProt Q8SPW2 17-208)
T16 sequence (Q8SPW2 17-208 limits assumed): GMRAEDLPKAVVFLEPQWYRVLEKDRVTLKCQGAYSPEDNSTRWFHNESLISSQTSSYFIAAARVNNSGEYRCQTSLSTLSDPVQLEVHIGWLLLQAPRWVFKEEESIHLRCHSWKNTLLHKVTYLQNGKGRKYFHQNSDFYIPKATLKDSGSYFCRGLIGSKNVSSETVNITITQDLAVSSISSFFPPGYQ

[16] = biological target: T16, cynomolgus monkey Fc gamma receptor CD16; remark: listed apart in the source
[17] = biological target: T6, recombinant cynomolgus monkey CD20
[18] = biological target: T7, cynomolgus monkey CD20 on cells
[19] = biological target: T15, recombinant human Fc gamma RIIIa …; remark: listed apart in the source
[20] = biological target: T12, recombinant human Fc gamma RIIIa …; remark: listed apart in the source
[21] = biological target: T13, recombinant human Fc gamma RIIIb (CD16b); remark: listed apart in the source
[22] = biological target: T2, recombinant human Fc gamma RIIa (CD32a) …; remark: listed apart in the source
[23] = biological target: T3, recombinant human Fc gamma RIIb/c …; remark: listed apart in the source
[24] = biological target: T14, recombinant human Fc gamma RI (CD64); remark: listed apart in the source
recombinant human CD19 = biological target: T8, recombinant human CD19
[25] = biological target: T17, cynomolgus monkey Fc gamma receptor CD32a (cynomolgus monkey)
[26] = biological target: T18, cynomolgus monkey Fc gamma receptor CD32b (cynomolgus monkey)
[27] = biological target: T17, cynomolgus monkey Fc gamma receptor …; remark: listed apart in the source
[28] = biological target: T18, cynomolgus monkey Fc gamma receptor …; remark: listed apart in the source
[29] = biological target: T9, recombinant cynomolgus monkey CD19
human CD19 on cells = biological target: T10, human CD19 on cells
[30] = biological target: T11, cynomolgus monkey CD19 on cells

Binder	Kd [8] [nM]	Kd [9] [nM]	Kd [10] [nM]	Kd [11] [nM]	Kd [12] [nM]	Kd [13] [nM]	Kd [14] [nM]	Kd [15] [nM]	Kd [16] [nM]	Kd [19] [nM]	Kd [20] [nM]	Kd [21] [nM]	Kd [22] [nM]	Kd [23] [nM]	Kd [24] [nM]	also measured
B1	1530	595	4090	1740	2330	6680	11.3	425	130	1520	309	4320	635	8880	0.0547	Kd [1]: 715 nM; Kd [2]: 1530 nM; Kd [3]: 892 nM; Kd [4]: 1250 nM; Kd [5]: 1520 nM; Kd [6]: 52.8 nM; Kd (CD20 Lipoparticles): < 0.001 nM; Kd [7]: 0.46 nM; Kd [17]: 1.1 nM; EC50 [18]: 0.61 nM
B2	121	88.9	176	231	203	234	5.6	49.5	1.34	15.3	4.19	62.1	39.1	99.4	< 0.02	Kd (recombinant human CD19): 1.4 nM; Kd [25]: 181 nM; Kd [26]: 152 nM; Kd [27]: 76.2 nM; Kd [28]: 53 nM; Kd [29]: 1800 nM; EC50 (human CD19 on cells): 1 nM; EC50 [30]: 57 nM
